Positions count from the first letter of the chain named. Each block holds one binder with its values, some of them ahead of it.
Biological target: cynomolgus monkey CTLA4 (human CTLA4 cDNA with S13N, I17T and L105M) on stably transfected CHO-K1 cells (human cDNA mutated to the cynomolgus monkey extracellular domain) (UniProt P16410)
Assay: FACS direct binding titration on CHO cells with cynomolgus CTLA4 (head prints IC50)

cynomolgus monkey CTLA4 (human CTLA4 cDNA with S13N, I17T and L105M) on stably transfected CHO-K1 cells (human cDNA mutated to the cynomolgus monkey extracellular domain), sequence (P16410 36-223, stated change not applied): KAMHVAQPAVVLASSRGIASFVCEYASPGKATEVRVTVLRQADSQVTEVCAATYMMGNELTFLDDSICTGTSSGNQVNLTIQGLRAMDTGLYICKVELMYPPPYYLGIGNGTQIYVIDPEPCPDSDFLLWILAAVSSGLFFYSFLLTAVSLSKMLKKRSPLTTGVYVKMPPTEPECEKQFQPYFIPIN

B2: 4CTLAPMP12H2 (VHH)
VHH: EVQLVESGGGLVEPGGSLRLSCAASGSISSYNVMGWYRQAPGQQRDLVAHIASNGEIMYADSAKGRFTISRDNAKKTVYLQMNSLKPEDTAVYYCKLWVLGNDYWGQRTQVTVSS
IC50: 5.65 nM

B3: 4CTLAPMP02A5 (VHH)
VHH: EVQLVESGGGLVQAGGSLRLSCAASGRTNSTTLMGWSRRAPGKEREFVAAISGSGTLTSYADSVKGRFAISRDNAKNTVYLQMNSLKPEDTAIYYCAAGLTSWALIPSRTLTTWGQGTQVTVSS
IC50: 7.74 nM

B4: 4CTLAPMP03C4 (VHH)
VHH: EVQLVESGGGLVQAGGSLRLSCAASGGTFSFYGMGWFRQAPGKEREFVADIRTSAGRTYYADSVKGRFTISRDNAKNTVYLQMNSLKPEDTAVYYCAAEMSGISGWDYWGQGTQVTVSS
IC50: 6.73 nM

B5: 4CTLAPMP11F1 (VHH)
VHH: B4 VHH with R45Q
IC50: 5.51 nM

B6: 4CTLAPMP06C10 (VHH)
VHH: EVQLVESGGGLVQAGGSLRLSCAASGRTFSNYTIAYFRQAPGREREFAAAISPHGTLRSFADSVKDRFTISRDNAKNTVWLQMNSLKLEDTAVYYCAADPSGWGLRQHSENEYPYWGLGTQVTVSS
IC50: 5.47 nM

These reach a lower IC50. Values come first.

IC50: 4.5 nM
B1: 4CTLAPMP11E3 (VHH)
VHH: B2 VHH with R108G

IC50: 2.42 nM
B7: 4CTLAPMP02F2 (VHH)
VHH: EVQLMESGGGLVQTGGSLRLSCAASGRTFSNYTMGWFRQAPGKDREFVAAISRSGSLKAYADSVKGRFTPSRDNAKKMAYLQMNSLKPEDTAVYYCAAAPVPWGTRPSLFPYDSWGQGTQVTVSS

IC50: 2.08 nM
B8: 4CTLAPMP02G2 (VHH)
VHH: B7 VHH with M5V, G8R, A59S, P70I, L109F, P111T

IC50: 2.36 nM
B9: 4CTLAPMP02F4 (VHH)
VHH: B7 VHH with M5V, S56A, L109F

IC50: 2.66 nM
B10: 4CTLAPMP2G9 (VHH)
VHH: EVQLVKSGGQLVQAGGSLRLSCAATGRTYNSYPLGWFRQAPGKEREFVAAISASGTLRAYADSVKGRFTISRDSAKNTVYLQMNNLKPEDTAVYYCARARSVGWRASHHLSDYDNWGQGTQVTVSS

Source: patent US20160280786A1
